{
  "source": "patent US20130123340A1",
  "biological_target": "GFP-MG53 (mouse) (UniProt Q1XH17)",
  "sequence (Q1XH17 whole entry)": "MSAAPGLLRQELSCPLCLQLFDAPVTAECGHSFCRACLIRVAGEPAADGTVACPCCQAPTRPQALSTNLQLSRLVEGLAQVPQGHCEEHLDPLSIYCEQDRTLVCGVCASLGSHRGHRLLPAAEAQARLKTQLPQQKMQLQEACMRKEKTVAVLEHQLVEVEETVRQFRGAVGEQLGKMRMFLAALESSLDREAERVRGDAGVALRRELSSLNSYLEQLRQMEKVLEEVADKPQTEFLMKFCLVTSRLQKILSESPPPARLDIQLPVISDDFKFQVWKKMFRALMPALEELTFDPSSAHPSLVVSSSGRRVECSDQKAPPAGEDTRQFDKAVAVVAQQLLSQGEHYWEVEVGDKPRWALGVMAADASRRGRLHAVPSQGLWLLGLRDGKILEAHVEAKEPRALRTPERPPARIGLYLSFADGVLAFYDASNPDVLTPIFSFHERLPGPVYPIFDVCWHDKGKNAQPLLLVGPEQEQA",
  "assay": "cell-based or functional assay",
  "data": [
    {"substance": "caveolin-3 overexpressed from pcDNA-Cav-3", "values": [
      {"measurement": "reduction in the appearance of filapodia-like structures in C2C12 myoblasts transfected with caveolin-3 and GFP-MG53 (about 10:1)", "result": 82, "unit": "%"}
    ]}
  ]
}
